# Residue numbers refer to the chain shown, from its start. In names and notes the source's numbering stands.
# B1: Erwinia ligand-gated ion channel (ELIC), wild type (natural protein, UniProt P0C7B7 1-321, looked up)
# chain: APADNAADARPVDVSVSIFINKIYGVNTLEQTYKVDGYIVAQWTGKPRKTPGDKPLIVENTQIERWINNGLWVPALEFINVVGSPDTGNKRLMLFPDGRVIYNARFLGSFSNDMDFRLFPFDRQQFVLELEPFSYNNQQLRFSDIQVYTENIDNEEIDEWWIRKASTHISDIRYDHLSSVQPNQNEFSRITVRIDAVRNPSYYLWSFILPLGLIIAASWSVFWLESFSERLQTSFTLMLTVVAYAFYTSNILPRLPYTTVIDQMIIAGYGSIFAAILLIIFAHHRQAMGVEDDLLIQRCRLAFPLGFLAIGCVLVIRGITL
# notes: Erwinia ligand-gated ion channel (ELIC), a pentameric ligand-gated ion channel, from plasmid pET-26-MBP-ELIC; Homopentamer; also called WT ELIC
# B2: ELIC5 (P254G/C300S/V261Y/G319F/I320F), non-desensitizing mutant of ELIC (natural protein)
# chain: B1 chain with P253G, V260Y, C299S, G318F, I319F
# Assays:
# [1] = target: the molecule itself; test: cryo-EM structure; single particle cryo-EM of ELIC or ELIC5 in SMA, saposin, spMSP1D1 or spNW15 nanodiscs with 2:1:1 POPC:POPE:POPG; 10 mM HEPES pH 7.5, 100 mM NaCl; with 50 mM propylamine or apo; C5 symmetry in 3D classification and refinement
# cryo-EM structure = target: the molecule itself; test: cryo-EM structure
Protein,binding result [1],binding result (cryo-EM structure)
B1,binds,–
B2,–,binds
